Source: patent US20210024640A1 (REMD BIOTHERAPEUTICS, published 2021)
Changes are numbered by the printed parent chain. Where “and” joins values, the source holds several entries; their conditions need not be identical. Identical values can stand only once.

B1: humanized Ab REMD 277 (VH2-1/VL2-2) (antibody, human IgG1, kappa, V domains shown)
VH: EVQLVQSGAEVKKPGESLKISCKGSGYTFTSYVMHWVRQMPGKGLEWMGYINPYNDGTKYNEKFKGQVTISADKSISTAYLQWSSLKASDTAMYYCARYYGSNYAMDYWGQGTMVTVSS
VL: EIVMTQSPATLSASPGERVTLSCRASQDIRNYLNWYQQKPGGAVRLLIYYTSRLHSGVPARFSGSGSGTDYTLTISSLEPEDYAVYFCQQGNTLPWTFGQGTKVEIKR
B2: murine antibody A3 (14F2C2D7) (antibody, V domains shown)
VH: QVQLKESGPGLVAPSQSLSITCTVSGFSLSSYGVHWVRQPPGKGLEWLGVIWAGGSTDYNSALMSRLSISKDNSKSQVVLKMNSLQTDDTAMYYCAREEVWDWGQGTLVTVSA
VL: DIQMTQTTSSLSASLGDRVTISCRASQDISNYLNWYQQKPDGTVKLLIYYTSRLQSGVPSRFSGSGSGTDYSLTISNLEQEDIATYFCQQGNTLPLTFGAGTKLELK
notes: also called MAb A3; H3/L3
B3: murine-human chimeric antibody derived from murine antibody A6 (chimeric IgG) (antibody, V domains shown)
VH: EVQLQQSGPELVKPGASVKMSCKASGYTFTSYVMHWVKQKPGQGLEWIGYINPYNDGTKYNEKFKGKATLTSDKSSSTAYMELSSLTSEDSAVYYCANYYGSNYAMDYWGQGTSVTVSS
VL: DIQMTQTTSSLSASLGDRVTISCRASQDIRNYLNWYQQKPDGTVKLLIYYTSRLHSGVPSRFSGSGSGTDYSLTISNLEQEDIATYFCQQGNTLPWTFGGGTKLEIKR
notes: also called chimeric OX40 Ab
B4: humanized Ab REMD 277.1 (VH2-1/VL2-1) (antibody, human IgG1, kappa, V domains shown)
VH: B1 VH
VL: B1 VL with M4L, A13L, V19A, G42Q, V44P, V58I, Y71F, Y83F, F87Y
B5: humanized Ab REMD 277.2 (VH2-1/VL5BM) (antibody, human IgG1, kappa, V domains shown)
VH: B1 VH
VL: B3 VL with T7S, T8P, L15V, D41G, G42K, S72T, L73F, N77S, E79Q, Q80P
B6: murine antibody A4 (13C2G10F10) (antibody, V domains shown)
VH: B3 VH with V33I, N103S, A105T
VL: B2 VL with S30R, T43S, Q55H, L96W, A100G, L106I
notes: also called MAb A4; H4/L4
B7: murine antibody A5 (40H11C2F5) (antibody, V domains shown)
VH: EVQLQQSGPELVKPGASVKISCKASGYTFTENYMNWVKQSHGKSLEWIGDINRNNGGTRYNQKFKGKATLTVDKSSSTDYMELRSLTSEDSAVYYCGGTVVGYFDVWGTGTTVTVSS
VL: B2 VL with T7I, T8I, S9T, A25S, Q55K, L96W, A100G, L106I
notes: also called MAb A5; H5/L5
B8: murine antibody A6 (2G2E2D8) (antibody, V domains shown)
VH: B3 VH
VL: B2 VL with S30R, Q55H, L96W, A100G, L106I
notes: also called MAb A6; Murine A6

The binders below were run against T1, OX40 on HT1080 OX40 stable cell line (Homo sapiens (Human), UniProt P43489 29-277) (assay: cell-based or functional assay).
T1 sequence: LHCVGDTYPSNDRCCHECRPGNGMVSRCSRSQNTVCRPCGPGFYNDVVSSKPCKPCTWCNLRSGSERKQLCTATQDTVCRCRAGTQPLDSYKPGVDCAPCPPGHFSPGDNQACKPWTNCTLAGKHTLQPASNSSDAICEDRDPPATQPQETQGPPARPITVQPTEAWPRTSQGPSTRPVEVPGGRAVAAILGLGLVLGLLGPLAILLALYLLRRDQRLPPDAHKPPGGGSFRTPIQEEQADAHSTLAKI

Binder | cell-based functional assay in the absence of OX40L, EC50
B1 | 1560 pM

The binders below were run against T2, human OX40 (NP_003318) (human, UniProt P43489 29-214, limits assumed) (assay: OX40L/OX40 blocking ELISA, purified proteins; OX40L/OX40 ELISA blocking, purified proteins).
T2 construct: also called HuOX40; CD134
T2 sequence: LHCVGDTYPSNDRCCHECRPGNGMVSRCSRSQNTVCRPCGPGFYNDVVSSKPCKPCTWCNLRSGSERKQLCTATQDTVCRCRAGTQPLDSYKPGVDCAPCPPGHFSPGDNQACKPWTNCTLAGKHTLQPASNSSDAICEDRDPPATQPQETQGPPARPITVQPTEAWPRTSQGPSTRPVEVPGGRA

Binder | IC50
B2 | 29.3 pM

The binders below were run against T3, OX40-his (Homo sapiens (Human), UniProt P43489 29-214, limits assumed) (assay: SPR Biacore 8K, antibody captured, OX40-his as analyte).
T3 construct: Analyte of the Biacore 8K assay; also called Ag OX40-his; Antigen OX40-his; not shown: His tag
T3 sequence: T2 sequence
Experimental: (§1) The affinities of purified antibody binding to OX40-his was determined using a Surface Plasmon Resonance (SPR) biosensor, Biacore 8k. Antibodies were immobilized on the sensor chip through capture method. Antigen OX40-his was used as the analyte. The data of dissociation (kd) and association (ka) rate constants were obtained using Biacore 8k evaluation software. The equilibrium dissociation constants (KD) were calculated from the ratio of kd over ka.

Binder | Kd | koff | kon
B3 | 9180 pM | 0.000865 s⁻¹ | 94200 M⁻¹ s⁻¹
B4 | 13800 pM | 0.000848 s⁻¹ | 61400 M⁻¹ s⁻¹
B5 | 5940 pM | 0.000119 s⁻¹ | 20000 M⁻¹ s⁻¹
B1 | 6300 pM | 0.000178 s⁻¹ | 28200 M⁻¹ s⁻¹

Biological target: T1, OX40 on HT1080 OX40 stable cell line
Test: cell-based or functional assay
Remark: another data set of the same source

Binder | EC50 (read off the curve), IL-8 secretion, OX40L-free Ab agonist assay
B4 | ~1000 pM

The binders below were run against T4, murine OX40 (murine, UniProt P47741 20-211, limits assumed) (assay: ELISA, murine OX40 binding).
T4 construct: also called MuOX40; mouse OX40
T4 sequence (looked up): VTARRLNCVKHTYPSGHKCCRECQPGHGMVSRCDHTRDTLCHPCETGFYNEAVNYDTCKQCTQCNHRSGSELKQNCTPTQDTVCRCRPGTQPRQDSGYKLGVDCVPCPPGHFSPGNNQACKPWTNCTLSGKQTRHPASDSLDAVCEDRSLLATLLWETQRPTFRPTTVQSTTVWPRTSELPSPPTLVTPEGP

Binder | binding result
B6 | no binding
B2 | no binding
B7 | no binding
B8 | no binding

Each binder was assayed against T2, human OX40 (NP_003318) (assay: OX40L/OX40 blocking ELISA, purified proteins).

Binder | IC50
B6 | 68.3 pM
B7 | 38.2 pM

These binders were tested against T5, cyno OX40 (cyno) (assay: ELISA, binding to cyno OX40).
T5 construct: also called CyOX40

Binder | EC50
B6 | 30.5 pM
B2 | 17.1 pM
B7 | 14.3 pM
B8 | 44.6 pM

Biological target: T1, OX40 on HT1080 OX40 stable cell line
Test: cell-based or functional assay
Remark: another data set of the same source

Binder | HT1080 + OX4OL/IL-8 Antagonist Assay IC50 | HT1080 Agonist Assay EC50 (IL-8 secretion) | HT1080 Agonist Assay nBMAX
B6 | 1350 pM | 8080 pM | 1.52
B2 |  | 6740 pM | 4.49
B7 |  | 2800 pM | 3.2
B8 |  | 1560 pM | 4.54

Each binder was assayed against T2, human OX40 (NP_003318) (assay: ELISA, binding to human OX40 (summary table; repeats Table 3)).

Binder | EC50
B8 | 27.5 pM

The binders below were run against T2, human OX40 (NP_003318) (assay: ELISA, binding to human OX40).

Binder | EC50
B3 | 28 pM
B4 | 960 pM
B5 | 3100 pM
B1 | 600 pM

Biological target: T2, human OX40 (NP_003318)
Test: ELISA, binding to human OX40
Remark: another data set of the same source

Binder | EC50
B6 | 15.7 pM and 15.1 pM
B2 | 12.8 pM and 13.6 pM
B7 | 8.1 pM and 7.9 pM
B8 | 27.5 pM and 27.2 pM

Biological target: T1, OX40 on HT1080 OX40 stable cell line
Test: cell-based or functional assay
Remark: another data set of the same source

Binder | HT1080 + OX40L Antagonist Assay IC50
B3 | 109 NM
B8 | 1.34 NM
B4 | 1.53 NM
B5 | 3.52 NM
B1 | 0.479 NM

The binders below were run against T3, OX40-his (assay: SPR Biacore (summary table; repeats Table 6)).
Experimental: as §1

Binder | Kd
B3 | 9180 pM
B4 | 13800 pM
B5 | 5940 pM
B1 | 6300 pM
